Laboratory results published in patent US20240109967A1.
Values joined by “and” are separate entries in the source; they are usually repeats but may differ in a detail not shown here. Equal values may be shown once. Read-outs that look alike come from different tables or passages of the source.

Experiments:
[1] = target: feline CTLA-4 in feline CD5+ leucocytes (feline) (UniProt Q9XTA1); assay: flow cytometry, feline PBMC, Surface labeling, anti-HA secondary alone, gated Lymphocytes>Single cells>Live>CD5+
[2] = target: full length canine CTLA-4 on cells (KTδ32.cCTLA-4 cells; canine T cells and regulatory T cells) (canine) (UniProt Q9XSI1)
[3] = target: full length canine CTLA-4 on cells (KTδ32.cCTLA-4 cells; canine T cells and regulatory T cells) (canine) (UniProt Q9XSI1); remark: listed apart in the source
[4] = target: full length canine CTLA-4 on cells (KTδ32.cCTLA-4 cells; canine T cells and regulatory T cells) (canine) (UniProt Q9XSI1); remark: listed apart in the source
[5] = target: feline CTLA-4 in feline CD5+ leucocytes (feline) (UniProt Q9XTA1)
[6] = target: feline CTLA-4 in feline CD5+ leucocytes (feline) (UniProt Q9XTA1); remark: listed apart in the source

| % of gated cells in the CTLA4 gate [1] | Substance | % of cells in the CTLA4(HA.APC) gate [2] | % of gated cells in Q5 (CTLA4+ CD4-) [3] | % of gated cells in Q6 (CTLA4+ CD4+) [3] | % of gated cells in the CTLA4 gate [4] | % of gated cells in the CTLA4 gate [5] | % of gated cells in the CTLA4 gate [6] |
| --- | --- | --- | --- | --- | --- | --- | --- |
| 3.8% | 2nd only (anti-HA secondary alone) | – | – | – | – | – | – |
| – | irrelevant MERS mAb (antibody) | 4.23% and 1.9% | 0.014% and 4.28% and 0.42% | 0.72% and 5.32% and 0.68% | 8.33% and 0% | 0.5% | 0.13% |
